Reference: PMC10397247
One block for each binder: values may come before it.

Columns and labels:
[1] = target: T1, AP7-AA; assay: two-hybrid library CCmax; conditions: mean of both orientations;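 note: natural log of median RNA to DNA barcode read ratio; higher means stronger binding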
T1 chain: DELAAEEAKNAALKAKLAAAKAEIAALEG

[2] = target: T2, P4-AA; assay: two-hybrid library CCmax; conditions: mean of both orientations;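 note: natural log of median RNA to DNA barcode read ratio; higher means stronger binding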
T2 chain: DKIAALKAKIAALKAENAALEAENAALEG

[3] = target: T3, P8-AA; assay: two-hybrid library CCmax; conditions: mean of both orientations;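 note: natural log of median RNA to DNA barcode read ratio; higher means stronger binding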
T3 chain: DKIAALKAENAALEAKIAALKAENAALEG

[4] = target: T4, P7-AA; assay: two-hybrid library CCmax; conditions: mean of both orientations;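 note: natural log of median RNA to DNA barcode read ratio; higher means stronger binding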
T4 chain: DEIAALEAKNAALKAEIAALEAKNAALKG

[5] = target: T5, P11-AA; assay: two-hybrid library CCmax; conditions: mean of both orientations;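 note: natural log of median RNA to DNA barcode read ratio; higher means stronger binding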
T5 chain: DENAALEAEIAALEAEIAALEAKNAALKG

[6] = target: T6, P9-AA; assay: two-hybrid library CCmax; conditions: mean of both orientations;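 note: natural log of median RNA to DNA barcode read ratio; higher means stronger binding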
T6 chain: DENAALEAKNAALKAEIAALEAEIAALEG

[7] = target: T7, P2-AA; assay: two-hybrid library CCmax; conditions: mean of both orientations
T7 chain: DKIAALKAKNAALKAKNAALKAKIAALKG

[8] = target: T8, P3-AA; assay: two-hybrid library CCmax; conditions: mean of both orientations
T8 chain: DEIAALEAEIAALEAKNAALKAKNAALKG

[9] = target: T9, P1-AA; assay: two-hybrid library CCmax; conditions: mean of both orientations
T9 chain: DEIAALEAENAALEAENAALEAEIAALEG

[10] = target: GCN2_T; assay: two-hybrid library CCmax
[11] = target: T10, AP8-AA; assay: two-hybrid library CCmax; conditions: mean of both orientations
T10 chain: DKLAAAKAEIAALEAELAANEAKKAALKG

[12] = target: T11, P10-AA; assay: two-hybrid library CCmax; conditions: mean of both orientations
T11 chain: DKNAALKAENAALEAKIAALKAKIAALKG

[13] = target: T12, P12-AA; assay: two-hybrid library CCmax; conditions: mean of both orientations
T12 chain: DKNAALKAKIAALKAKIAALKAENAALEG

[14] = target: T13, 4H3843-bN; assay: two-hybrid library CCNG1
T13 chain: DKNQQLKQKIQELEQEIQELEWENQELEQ

[15] = target: T14, 4H953-bN; assay: two-hybrid library CCNG1
T14 chain: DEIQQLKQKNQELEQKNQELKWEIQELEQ

[16] = target: T15, 4H967-bN; assay: two-hybrid library CCNG1
T15 chain: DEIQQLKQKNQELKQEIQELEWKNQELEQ

[17] = target: T16, 4H918-bN; assay: two-hybrid library CCNG1
T16 chain: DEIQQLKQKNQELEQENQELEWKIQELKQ

[18] = target: T17, 4H797-bN; assay: two-hybrid library CCNG1
T17 chain: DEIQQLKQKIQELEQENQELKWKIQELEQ

[19] = target: T18, 4H883-bN; assay: two-hybrid library CCNG1
T18 chain: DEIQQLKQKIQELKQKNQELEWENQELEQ

[20] = target: T19, 4H568-bN; assay: two-hybrid library CCNG1
T19 chain: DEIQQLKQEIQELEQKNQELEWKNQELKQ

[21] = target: T20, 4H370-bN; assay: two-hybrid library CCNG1
T20 chain: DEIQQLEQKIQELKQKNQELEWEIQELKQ

[22] = target: T21, 4H72-bN; assay: two-hybrid library CCNG1
T21 chain: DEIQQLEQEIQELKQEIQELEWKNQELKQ

[23] = target: T22, 4H607-bN; assay: two-hybrid library CCNG1
T22 chain: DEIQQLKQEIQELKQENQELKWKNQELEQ

[24] = target: T23, 4H687-bN; assay: two-hybrid library CCNG1
T23 chain: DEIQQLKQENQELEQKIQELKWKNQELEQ

[25] = target: T24, 4H4001-bN; assay: two-hybrid library CCNG1
T24 chain: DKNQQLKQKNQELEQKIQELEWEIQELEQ

[26] = target: T25, 4H3782-bN; assay: two-hybrid library CCNG1
T25 chain: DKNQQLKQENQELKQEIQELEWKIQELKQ

[27] = target: T26, 4H462-bN; assay: two-hybrid library CCNG1
T26 chain: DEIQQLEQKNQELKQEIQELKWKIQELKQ

[28] = target: T27, 4H3057-bH; assay: two-hybrid library CCNG1
T27 chain: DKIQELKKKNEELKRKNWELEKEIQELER

[29] = target: T28, 4H348-bH; assay: two-hybrid library CCNG1
T28 chain: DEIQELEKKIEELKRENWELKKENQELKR

[30] = target: T29, 4H319-bH; assay: two-hybrid library CCNG1
T29 chain: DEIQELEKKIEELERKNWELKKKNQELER

[31] = target: T30, 4H741-bH; assay: two-hybrid library CCNG1
T30 chain: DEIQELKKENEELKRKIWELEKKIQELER

[32] = target: T31, 4H3277-bH; assay: two-hybrid library CCNG1
T31 chain: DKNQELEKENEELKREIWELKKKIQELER

[33] = target: T32, 4H492-bH; assay: two-hybrid library CCNG1
T32 chain: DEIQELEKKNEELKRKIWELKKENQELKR

[34] = target: T33, 4H40-bH; assay: two-hybrid library CCNG1
T33 chain: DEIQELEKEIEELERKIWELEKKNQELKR

[35] = target: T34, 4H477-bH; assay: two-hybrid library CCNG1
T34 chain: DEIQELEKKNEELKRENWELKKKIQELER

interaction score [1]: -1.62 | interaction score [2]: -2.36 | interaction score [3]: -1.22 | interaction score [4]: -0.655 | interaction score [5]: -1.25 | interaction score [6]: -0.901 | interaction score [7]: -1.88 | interaction score [8]: -1.95 | interaction score [9]: -1.88 | interaction score [10]: -1.54 | interaction score [11]: -1.59 | interaction score [12]: -0.802 | interaction score [13]: -1.57
Binder: DEEAALEAKAAALKAELAANEAKLAAAKG [AP6-AA]

interaction score [14]: -0.715 | interaction score [15]: -1.96 | interaction score [16]: -0.814 | interaction score [17]: -0.831 | interaction score [18]: -0.598 | interaction score [19]: -1.39 | interaction score [20]: 0.649 | interaction score [21]: 0.966 | interaction score [22]: -0.189 | interaction score [23]: -0.679 | interaction score [24]: -1.17 | interaction score [25]: -0.655 | interaction score [26]: -0.329 | interaction score [27]: -1.49
Binder: DEIQQLEQKIQELKQKNQELEWEIQELKQ [4H370-bN]

interaction score [28]: -0.611 | interaction score [29]: -0.361 | interaction score [30]: -1.81 | interaction score [31]: -1.52 | interaction score [32]: -1.01 | interaction score [33]: -1.13 | interaction score [34]: -1.77 | interaction score [35]: -1.13
Binder: DKIQELKKKNEELKRKNWELEKEIQELER [4H3057-bH]
